Experimental data taken from patent US20250154277A1 (CONCEPT TO MEDICINE BIOTECH, published 2025).
Residue numbers refer to the chain shown, from its start. In names and notes the source's numbering stands.

T1: human 5T4-His protein (human, UniProt Q13641 32-355)
T1 construct: also called recombinant 5T4 protein (human 5T4-his tag); human 5T4 protein; not shown: His tag
T1 sequence (looked up): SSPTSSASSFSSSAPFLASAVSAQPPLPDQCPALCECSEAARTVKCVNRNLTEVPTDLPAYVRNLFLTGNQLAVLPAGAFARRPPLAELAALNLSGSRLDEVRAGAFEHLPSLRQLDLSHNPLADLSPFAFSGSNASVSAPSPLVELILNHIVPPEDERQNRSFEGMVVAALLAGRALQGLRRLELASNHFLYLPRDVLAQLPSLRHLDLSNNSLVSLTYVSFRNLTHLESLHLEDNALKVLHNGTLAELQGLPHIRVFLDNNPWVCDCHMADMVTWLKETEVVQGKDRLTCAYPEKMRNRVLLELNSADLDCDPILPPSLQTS

T2: cynomolgus 5T4 protein (cynomolgus monkey, UniProt Q4R8Y9 35-355, limits assumed)
T2 construct: Coated protein in ELISA; the screening step names a cyno 5T4-His protein; also called cyno 5T4; recombinant cyno 5T4-His protein
T2 sequence (looked up): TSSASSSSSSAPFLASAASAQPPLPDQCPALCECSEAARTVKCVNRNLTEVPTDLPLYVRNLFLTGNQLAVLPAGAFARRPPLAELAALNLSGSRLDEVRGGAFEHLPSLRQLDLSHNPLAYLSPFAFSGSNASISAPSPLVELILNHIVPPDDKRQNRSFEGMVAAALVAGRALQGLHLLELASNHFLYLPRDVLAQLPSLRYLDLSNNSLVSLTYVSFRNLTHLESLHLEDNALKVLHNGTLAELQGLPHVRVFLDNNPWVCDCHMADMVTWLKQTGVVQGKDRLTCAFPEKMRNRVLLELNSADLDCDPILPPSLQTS

B1: 159D5-P1 (antibody, V domains shown)
VH: DVQLVESGGGLVQPGGSRKLSCTASGFTFSNFGMHWVRQAPETGLEWVAYISSGSSTFYYADAVKGRFTISRDNPKNTLFLQMTSLRSEDTAMYFCARSPAYYRYGLDYWGQGTTLTVSS
VL: DIVLTQSPASLAVSLGQRATISCRASQSVSSSTFSYMHWYQQKPGQPPKLLIKSSSNLESGVPARFSGSGSGTDFTLNIHPVEEEDTATYYCQHSWEIPYTFGGGTKLEIK
notes: chimeric 159D5 with S62A (DS to DA) in VH CDR2; also called PTM removal antibody of 159D5-P1; 159D5-VH.S62A with 159D5 VL
B2: Hu159D5-2 (antibody, V domains shown)
VH: EVQLVESGGGVVQPGRSLRLSCAASGFTFSNFGMHWVRQAPGKGLEWVAYISSGSSTFYYADSVKGRFTISRDNSKNTLYLQMNSLRAEDTAVYYCARSPAYYRYGLDYWGQGTTVTVSS
VL: DIVMTQTPLSLSVTPGQPASISCRASQSVSSSTFSYMHWYQQKPGQPPQLLIKSSSNLESGVPDRFSGSGSGTDFTLKISRVEAEDVGVYYCQHSWEIPYTFGGGTKVEIK
notes: humanized
B3: Hu159D5-7 (antibody, V domains shown)
VH: B2 VH with Y95F
VL: B2 VL with K53Y
notes: humanized
B4: Hu159D5-8 (antibody, V domains shown)
VH: B2 VH with Y95F
VL: B2 VL
notes: humanized
B5: Hu159D5-3 (antibody, V domains shown)
VH: B2 VH
VL: B2 VL with M4L
notes: humanized
B6: Hu159D5-9 (antibody, V domains shown)
VH: B2 VH with Y95F
VL: B2 VL with M4L
notes: humanized
B7: Hu159D5-1 (antibody, V domains shown)
VH: B2 VH
VL: B2 VL with K53Y
notes: humanized
B8: 493E10 chimeric antibody (antibody, V domains shown)
VH: DVQLVESGGGLVQPGGSRKLSCAASGFTFSSFGMHWVRQAPEKGLEWVAYISSGSSTIYYADTVKGRFTISRDNPKNTLFLQMTSLRSEDTAMYYCARNRAYHREAMDYWGQGTSVTVSS
VL: B1 VL with A12T, T33S, F34Y, S35N, S55A
notes: chimeric mAb
B9: 119G5 chimeric antibody (antibody, V domains shown)
VH: QVQLQQSGPEVVKPGASVKISCKASGYTFTDYYMNWVKQSRGKSLEWIGDINPNNGGTNYNQKFKGKATLTVDKSSSTAYMELRSLTSEDSAVYYCAKEGPPGAMDYWGQGTSVTVSS
VL: NIVMTQTPKFLLVSAGDRVTITCKASQSVSNHVAWYQQKPGQSPKLLIYYVSNRSIGVPDRFTGSGYGTDFTFTISTVQAEDLAVYFCQQVYSSPFTFGGGTRLEMK
notes: chimeric mAb
B10: 85B10 chimeric antibody (antibody, V domains shown)
VH: B9 VH with V11L, D31A, M34V, R41H, K74M
VL: B9 VL with N1S, M4L, T20P, H32N, V51A, R54P, S55Y, I56T, S76T, R103K
notes: chimeric mAb
B11: 95F10 chimeric antibody (antibody, V domains shown)
VH: B9 VH with K13N, G66D, S77N, D90N
VL: B9 VL with S55Y
notes: chimeric mAb
B12: 286B4 chimeric antibody (antibody, V domains shown)
VH: DVQLHESGPGLVKPSQSLSLTCSVTGYSITNNYYWNWIRQFPGNNLEWMGYITYDGSNNYNPSLKNRISVTRDTSKNQFFLKLSSVTTEDTATYYCTRGGGQLRFDYWGQGTTLTVSS
VL: SIVMTQTPKFLIVSAGDRVTITCKASQSVSNEVTWYQQKPGQSPKMLIYYASNRYTGVPDRFTGSGYGTDFTFTINTVQAEDLAIYFCQQDYSSPWTFGGGTKLEIK
notes: chimeric mAb; also called 284B4-C
B13: 49C5 chimeric antibody (antibody, V domains shown)
VH: EVQLQQSGPELVKPGASVKISCKASGYTFTDYYMNWVKQSHGKSLEWIGDINPYSGGATNNQKFKGKATLTVDKSSSTAYIELRSLTSEDSAVYFCARGSIYYDSTANYFDYWGQGTTLTVSS
VL: DIQMTQSPASLSASVGETVTITCRASENIYSYLAWYQQKQGKSPQLLVYNAKSLTEGVPSRFSGSRSGTQFSLKINSLQPEDFGSYYCQHHYVTPWTFGGGTKLEIK
notes: chimeric mAb
B14: 109H7 chimeric antibody (antibody, V domains shown)
VH: QVQLQQSGAELMKPGASVKLSCKATGYTFTGYWIEWVKQRPGQGLEWIGETLPGRGSTNYNEKFKGKATFTADTSSNIVYMQLSSLTIEDSAIYYCARGRRDFDYWGQGTTLTVSS
VL: DIQMTQTTSSLSASLGDEVTISCSASQGINNYLNWYQQKPDGTVKLLIYYTSSLHSGVPSRFSGSGSGTDYSLTIINLEPEDIATYYCQQFSKLPFTFGSGTKLEIR
notes: chimeric mAb

The binders below were run against T1, human 5T4-His protein (assay: SPR Biacore, Protein A capture, 50 nM 5T4-His).
Protocol: (§1) The binding of the 159D5 humanized antibodies to recombinant 5T4 protein (human 5T4-his tag) was tested with Biacore using a capture method. The mAbs were captured using Protein A chip. 50 nM of human 5T4-his tag protein was injected over captured antibody for 3 mins at a flow rate of 30 μl/min. The antigen was allowed to dissociate for 600 s. All the experiments were carried out on a Biacore T200. Data analysis was carried out using the Biacore T200 evaluation software.

Going from B1 to B2, the Kd rises from 489 pM to 789 pM (1.6-fold).

Going from B3 to B4, the Kd rises from 1140 pM to 4190 pM (3.7-fold). The first binds more tightly here.

B5 and B6 are within 1.5-fold of each other in Kd: 1020 pM for the first, 747 pM for the second.

With B7 the Kd was 3990 pM.

B1 and B2 are within 1.5-fold of each other in koff: 0.000163 s⁻¹ for the first, 0.000227 s⁻¹ for the second.

B3 and B4 are within 1.5-fold of each other in koff: 0.000253 s⁻¹ for the first, 0.000352 s⁻¹ for the second.

B5 and B6 are within 1.5-fold of each other in koff: 0.00024 s⁻¹ for the first, 0.000221 s⁻¹ for the second.

B7 showed a koff of 0.000294 s⁻¹.

B1 and B2 are within 1.5-fold of each other in kon: 334000 M⁻¹ s⁻¹ for the first, 287000 M⁻¹ s⁻¹ for the second.

First: B3
Second: B4
The kon of the first is 2.6-fold higher: 221000 M⁻¹ s⁻¹ for the first, 84000 M⁻¹ s⁻¹ for the second.

B5 and B6 are within 1.5-fold of each other in kon: 235000 M⁻¹ s⁻¹ for the first, 295000 M⁻¹ s⁻¹ for the second.

Binder B7 has a kon of 73700 M⁻¹ s⁻¹.

These binders were tested against T1, human 5T4-His protein (assay: SPR Biacore, Protein A capture).
Protocol: as §1, with “the chimeric mAbs from these clones against” for “the 159D5 humanized antibodies to”, “chip. A serial dilution” for “chip. 50 nM”, “for 2-3” for “for 3”, “for 360-1000” for “for 600”, “using” for “using the”

Going from B8 to B9, the Kd rises from 626 pM to 1220 pM (1.9-fold). The first binds more tightly here.

First: B10
Second: B11
The Kd of the first is 2.4-fold higher: 792 pM for the first, 337 pM for the second. The second binds more tightly here.

First: B12
Second: B13
The Kd of the first is 1.5-fold higher: 960 pM for the first, 620 pM for the second. The second binds more tightly here.

B14 showed a Kd of 606 pM.

Going from B8 to B9, the koff falls from 0.000402 s⁻¹ to 0.000159 s⁻¹ (2.5-fold).

B10 and B11 are within 1.5-fold of each other in koff: 0.000125 s⁻¹ for the first, 0.00012 s⁻¹ for the second.

Going from B12 to B13, the koff rises from 6.99e-05 s⁻¹ to 0.000337 s⁻¹ (4.8-fold).

Work on B14 yielded a koff of 0.000391 s⁻¹.

Compared with B8, B9 is 4.9-fold lower in kon: 642000 M⁻¹ s⁻¹ for the first, 130000 M⁻¹ s⁻¹ for the second.

First: B10
Second: B11
The kon of the first is 2.2-fold lower: 158000 M⁻¹ s⁻¹ for the first, 355000 M⁻¹ s⁻¹ for the second.

First: B12
Second: B13
The kon of the first is 7.5-fold lower: 72800 M⁻¹ s⁻¹ for the first, 544000 M⁻¹ s⁻¹ for the second.

With B14 the kon was 645000 M⁻¹ s⁻¹.

These binders were tested against T2, cynomolgus 5T4 protein (assay: ELISA, coated antigen).
Protocol: (§2) ELISA testing was carried out to evaluate the binding of chimeric antibodies to human and cynomolgus, respectively. The antibody portion of naptumomab (NeoTX) that targets 5T4 (abbreviated as naptumomab in the present disclosure), was generated and used as a benchmark.
(§3) Briefly, microtiter plates were coated with human and cynomolgus 5T4 proteins at […] in PBS, 100 μl/well at 4° C. overnight, then blocked with 150 μl/well of 1% BSA. Serial dilutions of chimeric antibodies were added to each well and incubated for 1 hour at RT. The plates were washed with PBS/Tween and then incubate with mouse-anti-human IgG Fc antibody conjugated with Horse Radish Peroxidase (HRP) for 30 mins at RT. After washing, the plates were developed with TMB substrate and analyzed by spectrophotometer at OD 450 nm. All the 5T4 chimeric mAbs bound to human and cynomolgus 5T4 (FIG. 1-2 and Table 3).

B8 and B9 are within 1.5-fold of each other in EC50: 250 pM for the first, 200 pM for the second.

B10 and B11 are the same in EC50: 170 pM for the first, 170 pM for the second.

B12 and B13 are within 1.5-fold of each other in EC50: 220 pM for the first, 180 pM for the second.

Work on B14 yielded an EC50 of 190 pM.

These binders were tested against T1, human 5T4-His protein (assay: ELISA, coated antigen).
Protocol: as §2, §3

B8 and B9 are within 1.5-fold of each other in EC50: 280 pM for the first, 320 pM for the second.

B10 and B11 are within 1.5-fold of each other in EC50: 340 pM for the first, 240 pM for the second.

First: B12
Second: B13
The EC50 of the first is 1.7-fold lower: 350 pM for the first, 600 pM for the second. The first is the more potent here.

B14 was tested, and the EC50 was 310 pM.

Target: T1, human 5T4-His protein
Assay: SPR Biacore, Protein A capture
Remark: another data set of the same source
Protocol: as §1, with “286B4” for “159D5”, “A serial dilution” for “50 nM”, “280-800” for “600”

For B12, the Kd was 1250 pM.

Work on B12 yielded a koff of 0.000113 s⁻¹.

With B12 the kon was 90900 M⁻¹ s⁻¹.

These binders were tested against T1, human 5T4-His protein (assay: ELISA, coated 5T4-His).
Protocol: To evaluate the binding activity of 159D5 humanized antibodies to human 5T4, the 159D5 chimeric antibody along with 159D5 humanized mAbs were subjected to ELISA test.
Briefly, microtiter plates were coated with human 5T4-His protein at 1 μg/ml in PBS, 100 μl/well at 4° C. overnight, then blocked with 150 μl/well of 10% BSA. Serial dilutions of antibodies were added to each well and incubated for 1 hour at 37° C. The plates were washed with PBS/Tween and then incubated with Goat Anti-Human IgG-HRP for 30 mins at 37° C. After washing, the plates were developed with TMB substrate and analyzed by spectrophotometer at OD 450 nm. As shown in FIG. 14 and Table 12, most of the humanized antibodies bound to human 5T4 with high activity.

B1 and B2 are within 1.5-fold of each other in EC50: 130 pM for the first, 120 pM for the second.

Going from B3 to B4, the EC50 rises from 97 pM to 150 pM (1.5-fold). The first is the more potent here.

B5 and B6 are within 1.5-fold of each other in EC50: 120 pM for the first, 140 pM for the second.

Work on B7 yielded an EC50 of 88 pM.

Target: T1, human 5T4-His protein
Assay: ELISA, coated 5T4-His
Remark: another data set of the same source
Protocol: To evaluate the binding activity of clones, the 286B4 chimeric antibody along with 286B4 humanized mAbs were subjected to ELISA test.
Briefly, microtiter plates were coated with human 5T4-His protein at 1 μg/ml in PBS, 100 μl/well at 4° C. overnight, then blocked with 150 μl/well of 1% BSA. 4-fold dilutions of tested antibodies starting from 20 nM were added to each well and incubated for 1 hour at 37° C. The plates were washed with PBS/Tween and then incubated with Goat Anti-Human IgG-HRP for 30 mins at 37° C. After washing, the plates were developed with TMB substrate and analyzed by spectrophotometer at OD 450 nm. As shown in FIG. 16 and Table 15, most of the humanized clones bound to human 5T4 with high potency.

Binder B12 has an EC50 of 320 pM.
